The values below come from the supplement of paper PMC9112550, “Optimization of the antimicrobial peptide Bac7 by deep mutational scanning” (BMC Biology, 2022).

The series has as its system Escherichia coli TOP10. As to the kind of experiment: shrunken log2 fold change of peptide-encoding DNA abundance (4.5 h post-induction vs induction); higher = less antimicrobial activity (less host growth inhibition). The settings on record: time post-induction: 4.5 h; library: site-saturation at positions 5, 18, 19, 20.
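Also: peptides expressed intracellularly from a pBAD plasmid library in pooled LB shake-flask culture, induced with 0.3% L-arabinose, DNA abundance read by NGS, three biological replicates, DESeq2 with apeglm shrinkage.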

On to RRIRSRPPRLPRPRPRPMDLPRP, for which the “shrunken log2 fold change” value is 0.0372.

As for RRIRYRPPRLPRPRPRPCHPPRP, the “shrunken log2 fold change” value is -0.669.

RRIRIRPPRLPRPRPRPWSTPRP: the “shrunken log2 fold change” value was -0.358.

As to RRIRPRPPRLPRPRPRPGQKPRP, the “shrunken log2 fold change” value is -0.00227.

Consider RRIRTRPPRLPRPRPRPLNKPRP, for which the “shrunken log2 fold change” value was -0.225.

On to RRIRIRPPRLPRPRPRPLTKPRP, for which the “shrunken log2 fold change” value was -0.94.

On to RRIRERPPRLPRPRPRPNRSPRP, for which the “shrunken log2 fold change” value is -0.0779.

As for RRIRGRPPRLPRPRPRPARMPRP, the “shrunken log2 fold change” value is 0.613.

As to RRIRLRPPRLPRPRPRPPAPPRP, the “shrunken log2 fold change” value is 0.789.

For RRIRHRPPRLPRPRPRPNCWPRP, the “shrunken log2 fold change” value turned out to be 0.612.

Turning to RRIRERPPRLPRPRPRPFLAPRP, the “shrunken log2 fold change” value worked out at 0.0854.

Turning to RRIRYRPPRLPRPRPRPYYQPRP, the “shrunken log2 fold change” value is -0.462.

As to RRIRERPPRLPRPRPRPTVQPRP, the “shrunken log2 fold change” value is -0.157.

For the sequence RRIRPRPPRLPRPRPRPGWSPRP, the “shrunken log2 fold change” value was 0.0867.

Consider RRIRPRPPRLPRPRPRPMIMPRP, for which the “shrunken log2 fold change” value was -0.0291.

On to RRIRCRPPRLPRPRPRPEAAPRP, for which the “shrunken log2 fold change” value stood at 1.11.

As for RRIRLRPPRLPRPRPRPDLQPRP, the “shrunken log2 fold change” value was -0.0184.

RRIRARPPRLPRPRPRPIWSPRP: the “shrunken log2 fold change” value came out at 1.14.

With RRIRSRPPRLPRPRPRPYKKPRP, the “shrunken log2 fold change” value was -0.0605.

Consider RRIRIRPPRLPRPRPRPHKVPRP, for which the “shrunken log2 fold change” value was -0.0742.

With RRIRVRPPRLPRPRPRPCYAPRP, the “shrunken log2 fold change” value was -0.162.

Consider RRIRIRPPRLPRPRPRPLNHPRP, for which the “shrunken log2 fold change” value is -0.458.

With RRIRLRPPRLPRPRPRPFICPRP, the “shrunken log2 fold change” value is -0.426.

In the case of RRIRARPPRLPRPRPRPWGPPRP, the “shrunken log2 fold change” value is -0.119.

On to RRIRMRPPRLPRPRPRPSFCPRP, for which the “shrunken log2 fold change” value was -0.0778.

As for RRIRVRPPRLPRPRPRPRPGPRP, the “shrunken log2 fold change” value came out at 0.627.

RRIRSRPPRLPRPRPRPYPQPRP: the “shrunken log2 fold change” value is -0.267.

Turning to RRIRARPPRLPRPRPRPQRAPRP, the “shrunken log2 fold change” value was determined as 1.26.

RRIRTRPPRLPRPRPRPGEYPRP: the “shrunken log2 fold change” value is -0.194.

In the case of RRIRFRPPRLPRPRPRPQCYPRP, the “shrunken log2 fold change” value was 0.04.

RRIRRRPPRLPRPRPRPIQAPRP: the “shrunken log2 fold change” value was -0.0046.

Turning to RRIRPRPPRLPRPRPRPMYWPRP, the “shrunken log2 fold change” value is -0.0489.

Regarding RRIRVRPPRLPRPRPRPDCLPRP, the “shrunken log2 fold change” value is -0.318.

Take RRIRGRPPRLPRPRPRPSQLPRP: the “shrunken log2 fold change” value came to 0.461.

As for RRIRERPPRLPRPRPRPRSIPRP, the “shrunken log2 fold change” value came to 0.0163.

As for RRIRHRPPRLPRPRPRPALTPRP, the “shrunken log2 fold change” value turned out to be 0.0729.

As for RRIRGRPPRLPRPRPRPEPMPRP, the “shrunken log2 fold change” value came out at 0.648.

Take RRIRQRPPRLPRPRPRPKKTPRP: the “shrunken log2 fold change” value is -0.0104.

Take RRIRVRPPRLPRPRPRPKDSPRP: the “shrunken log2 fold change” value was -0.327.

Regarding RRIRLRPPRLPRPRPRPEQIPRP, the “shrunken log2 fold change” value was -0.0478.

For the sequence RRIRNRPPRLPRPRPRPVEVPRP, the “shrunken log2 fold change” value was -0.296.

With RRIRTRPPRLPRPRPRPPEWPRP, the “shrunken log2 fold change” value is 0.442.

As to RRIRIRPPRLPRPRPRPCRPPRP, the “shrunken log2 fold change” value is -0.0283.

Take RRIRMRPPRLPRPRPRPDDHPRP: the “shrunken log2 fold change” value was 0.00288.

RRIRMRPPRLPRPRPRPMFSPRP: the “shrunken log2 fold change” value is -0.125.

Take RRIRIRPPRLPRPRPRPTDPPRP: the “shrunken log2 fold change” value was -0.223.

Take RRIRVRPPRLPRPRPRPSYDPRP: the “shrunken log2 fold change” value was -0.576.

Regarding RRIRWRPPRLPRPRPRPTVIPRP, the “shrunken log2 fold change” value worked out at 0.0385.

On to RRIRDRPPRLPRPRPRPLMFPRP, for which the “shrunken log2 fold change” value is -0.188.

Consider RRIRNRPPRLPRPRPRPHNKPRP, for which the “shrunken log2 fold change” value is -0.483.

As for RRIRLRPPRLPRPRPRPYFVPRP, the “shrunken log2 fold change” value was -0.65.

As for RRIRARPPRLPRPRPRPCPFPRP, the “shrunken log2 fold change” value was -0.154.

For the sequence RRIRQRPPRLPRPRPRPILRPRP, the “shrunken log2 fold change” value came to 0.034.

On to RRIRARPPRLPRPRPRPCDQPRP, for which the “shrunken log2 fold change” value is -0.00754.

Regarding RRIRKRPPRLPRPRPRPHNSPRP, the “shrunken log2 fold change” value was -0.24.

RRIRCRPPRLPRPRPRPEDKPRP: the “shrunken log2 fold change” value was -0.114.

As to RRIRWRPPRLPRPRPRPCMYPRP, the “shrunken log2 fold change” value was -0.325.

Turning to RRIRVRPPRLPRPRPRPGNQPRP, the “shrunken log2 fold change” value was -0.284.

With RRIRARPPRLPRPRPRPPHNPRP, the “shrunken log2 fold change” value is 0.757.

For RRIRLRPPRLPRPRPRPAMTPRP, the “shrunken log2 fold change” value is -0.113.

In the case of RRIRNRPPRLPRPRPRPCEPPRP, the “shrunken log2 fold change” value was -0.183.

In the case of RRIRARPPRLPRPRPRPWVIPRP, the “shrunken log2 fold change” value is -0.296.

In the case of RRIRLRPPRLPRPRPRPAEGPRP, the “shrunken log2 fold change” value came out at 0.242.

On to RRIRARPPRLPRPRPRPQACPRP, for which the “shrunken log2 fold change” value was determined as 0.0559.

Regarding RRIRMRPPRLPRPRPRPRQKPRP, the “shrunken log2 fold change” value came out at 0.183.

With RRIRERPPRLPRPRPRPDQRPRP, the “shrunken log2 fold change” value is -0.48.

As to RRIRCRPPRLPRPRPRPLHNPRP, the “shrunken log2 fold change” value is -0.264.

RRIRYRPPRLPRPRPRPTRDPRP: the “shrunken log2 fold change” value was -0.0311.

Regarding RRIRVRPPRLPRPRPRPNTIPRP, the “shrunken log2 fold change” value was -0.571.

Regarding RRIRFRPPRLPRPRPRPQPVPRP, the “shrunken log2 fold change” value was determined as 0.356.

With RRIRTRPPRLPRPRPRPPCSPRP, the “shrunken log2 fold change” value was -0.00786.

RRIRLRPPRLPRPRPRPIRQPRP: the “shrunken log2 fold change” value was -0.0246.

Regarding RRIRDRPPRLPRPRPRPSDIPRP, the “shrunken log2 fold change” value was -0.0124.

With RRIRKRPPRLPRPRPRPEKEPRP, the “shrunken log2 fold change” value worked out at 0.139.

Turning to RRIRPRPPRLPRPRPRPKKNPRP, the “shrunken log2 fold change” value amounted to 0.0249.

With RRIRPRPPRLPRPRPRPDFGPRP, the “shrunken log2 fold change” value was -0.19.

With RRIRDRPPRLPRPRPRPQCFPRP, the “shrunken log2 fold change” value was found to be 0.0363.

RRIRVRPPRLPRPRPRPLLWPRP: the “shrunken log2 fold change” value amounted to 0.145.

For RRIRFRPPRLPRPRPRPMIRPRP, the “shrunken log2 fold change” value is -0.163.

On to RRIRERPPRLPRPRPRPWPGPRP, for which the “shrunken log2 fold change” value was -0.0345.

As to RRIRWRPPRLPRPRPRPLVRPRP, the “shrunken log2 fold change” value worked out at 0.151.

In the case of RRIRVRPPRLPRPRPRPKMMPRP, the “shrunken log2 fold change” value is -0.313.

RRIRKRPPRLPRPRPRPDITPRP: the “shrunken log2 fold change” value was determined as 2.24.

Regarding RRIRLRPPRLPRPRPRPEVHPRP, the “shrunken log2 fold change” value stood at 0.101.

For the sequence RRIRDRPPRLPRPRPRPGRSPRP, the “shrunken log2 fold change” value was 0.0526.

For the sequence RRIRKRPPRLPRPRPRPMFIPRP, the “shrunken log2 fold change” value is -0.0367.

Turning to RRIRLRPPRLPRPRPRPRRFPRP, the “shrunken log2 fold change” value is 0.142.

Regarding RRIRCRPPRLPRPRPRPHENPRP, the “shrunken log2 fold change” value is -0.0452.

Take RRIRSRPPRLPRPRPRPYDGPRP: the “shrunken log2 fold change” value was -0.203.

Take RRIRKRPPRLPRPRPRPFLCPRP: the “shrunken log2 fold change” value came to 0.158.

As for RRIRNRPPRLPRPRPRPGRPPRP, the “shrunken log2 fold change” value came out at 0.123.

With RRIRPRPPRLPRPRPRPTANPRP, the “shrunken log2 fold change” value was 0.297.

Take RRIRWRPPRLPRPRPRPDMKPRP: the “shrunken log2 fold change” value was found to be 0.0231.

Turning to RRIRARPPRLPRPRPRPLEHPRP, the “shrunken log2 fold change” value amounted to 0.0565.

For the sequence RRIRCRPPRLPRPRPRPDHQPRP, the “shrunken log2 fold change” value was -0.172.

As to RRIRNRPPRLPRPRPRPYGMPRP, the “shrunken log2 fold change” value was -0.331.

For RRIRNRPPRLPRPRPRPDNIPRP, the “shrunken log2 fold change” value is -0.312.

For RRIRRRPPRLPRPRPRPCDPPRP, the “shrunken log2 fold change” value was found to be 0.0316.

Turning to RRIRMRPPRLPRPRPRPYVNPRP, the “shrunken log2 fold change” value was -0.284.

Take RRIRPRPPRLPRPRPRPPDFPRP: the “shrunken log2 fold change” value was -0.256.

Regarding RRIRWRPPRLPRPRPRPGDFPRP, the “shrunken log2 fold change” value is 0.564.

RRIRRRPPRLPRPRPRPQRRPRP: the “shrunken log2 fold change” value is 0.482.

As to RRIRYRPPRLPRPRPRPYVNPRP, the “shrunken log2 fold change” value was -0.361.

On to RRIRRRPPRLPRPRPRPMRIPRP, for which the “shrunken log2 fold change” value was determined as 0.0269.

Turning to RRIRWRPPRLPRPRPRPDKRPRP, the “shrunken log2 fold change” value is -0.00125.

Consider RRIRNRPPRLPRPRPRPEDYPRP, for which the “shrunken log2 fold change” value was -0.133.

Turning to RRIRERPPRLPRPRPRPFVVPRP, the “shrunken log2 fold change” value was -0.0043.

As for RRIRNRPPRLPRPRPRPFVHPRP, the “shrunken log2 fold change” value was -0.568.

For the sequence RRIRQRPPRLPRPRPRPRHFPRP, the “shrunken log2 fold change” value was 0.0257.

Regarding RRIRMRPPRLPRPRPRPNHPPRP, the “shrunken log2 fold change” value is -0.0733.

On to RRIRIRPPRLPRPRPRPNGAPRP, for which the “shrunken log2 fold change” value amounted to 0.0157.

With RRIRTRPPRLPRPRPRPWFFPRP, the “shrunken log2 fold change” value is -0.0908.

For the sequence RRIRERPPRLPRPRPRPDESPRP, the “shrunken log2 fold change” value is -0.304.

In the case of RRIRHRPPRLPRPRPRPLWMPRP, the “shrunken log2 fold change” value was -0.138.

Consider RRIRRRPPRLPRPRPRPYNQPRP, for which the “shrunken log2 fold change” value is -0.207.

With RRIRGRPPRLPRPRPRPQHKPRP, the “shrunken log2 fold change” value is -0.00366.

With RRIRRRPPRLPRPRPRPQINPRP, the “shrunken log2 fold change” value was found to be 0.0135.

In the case of RRIRCRPPRLPRPRPRPCNQPRP, the “shrunken log2 fold change” value is -0.412.

For RRIRARPPRLPRPRPRPLSPPRP, the “shrunken log2 fold change” value is 0.0788.

As for RRIRIRPPRLPRPRPRPNVMPRP, the “shrunken log2 fold change” value was -0.328.

In the case of RRIRYRPPRLPRPRPRPKSRPRP, the “shrunken log2 fold change” value was -0.552.

As to RRIRNRPPRLPRPRPRPGVDPRP, the “shrunken log2 fold change” value was -0.154.

Take RRIRARPPRLPRPRPRPNTTPRP: the “shrunken log2 fold change” value is -0.164.

As to RRIRHRPPRLPRPRPRPGKDPRP, the “shrunken log2 fold change” value is -0.0922.

Take RRIRGRPPRLPRPRPRPWIDPRP: the “shrunken log2 fold change” value was -0.103.
